The text below walks through data of patent US9150649B2, “Potent conjugates and hydrophilic linkers” (priority 2008, dated 2015).

For this data set the following is noted: mouse, in vivo, iv, 12 mg/kg.

Protocol: CD1 mice were injected intravenously, by a single bolus, of 5 mg/kg conjugates (antibody-based dose; 3 mice per group). Plasma samples were collected at several time points up to 4 weeks. The plasma samples were analyzed for antibody concentration and for conjugate concentration using ELISA. For antibody ELISA, the plasma samples were added to microtiter plates containing coated, immobilized goat-anti-human IgG (H+L) antibody, washed, and detected using horseradish peroxidase-conjugated goat-anti-human IgG (Fe) antibody. For conjugate concentration, the plasma samples were added to microtiter plates containing coated, immobilized goat-anti-human IgG (H+L) antibody, washed, and detected using biotinylated anti-maytansine antibody and alkaline phosphatase-conjugated streptavidin.

B1: unconjugated antibody: unconjugated humanized C242 antibody, binds the CanAg antigen (antibody, chains of the INN, looked up, V domains shown)
VH: QVQLVQSGAEVKKPGETVKISCKASDYTFTYYGMNWVKQAPGQGLKWMGWIDTTTGEPTYAQKFQGRIAFSLETSASTAYLQIKSLKSEDTATYFCARRGPYNWYFDVWGQGTTVTVSS
VL: DIVMTQSPLSVPVTPGEPVSISCRSSKSLLHSNGNTYLYWFLQRPGQSPQLLIYRMSNLVSGVPDRFSGSGSGTAFTLRISRVEAEDVGVYYCLQHLEYPFTFGPGTKLELK
Consider B1, for which the “area under the curve (AUC)” value was 38798 µg·h/mL.
